This note sets out measurements from article PMC9569509, “Collagen Type XI Inhibits Lung Cancer-Associated Fibroblast Functions and Restrains the Integrin Binding Site Availability on Collagen Type I Matrix” (International Journal of Molecular Sciences, 2022).

In this experiment the target is bovine collagen type XI (bovine, UniProt Q28083 279-911; Q32S24 28-1736; P02459 182-1487, Triple helix of alpha1(XI), alpha2(XI) and alpha3(XI), the last being the COL2A1 product; hydroxyproline and glycosylated hydroxylysine. Purchased tissue collagen (Chondrex); limits not given, and t). The experiment can be described thus: ELISA; solid phase assay: collagens (50 µg/mL) or fibronectin (10 µg/mL) immobilised on a 96-well plate; DDR2-Fc in 0.05 mg/mL κ-casein in PBS-T, 3 h at room temperature; detected by goat anti-human IgG (Fc specific)-HRP; Kd by Scatchard plot. The note with it: both partners purified.
Chain of bovine collagen type XI (Q28083 279-911, chain 1 of 3): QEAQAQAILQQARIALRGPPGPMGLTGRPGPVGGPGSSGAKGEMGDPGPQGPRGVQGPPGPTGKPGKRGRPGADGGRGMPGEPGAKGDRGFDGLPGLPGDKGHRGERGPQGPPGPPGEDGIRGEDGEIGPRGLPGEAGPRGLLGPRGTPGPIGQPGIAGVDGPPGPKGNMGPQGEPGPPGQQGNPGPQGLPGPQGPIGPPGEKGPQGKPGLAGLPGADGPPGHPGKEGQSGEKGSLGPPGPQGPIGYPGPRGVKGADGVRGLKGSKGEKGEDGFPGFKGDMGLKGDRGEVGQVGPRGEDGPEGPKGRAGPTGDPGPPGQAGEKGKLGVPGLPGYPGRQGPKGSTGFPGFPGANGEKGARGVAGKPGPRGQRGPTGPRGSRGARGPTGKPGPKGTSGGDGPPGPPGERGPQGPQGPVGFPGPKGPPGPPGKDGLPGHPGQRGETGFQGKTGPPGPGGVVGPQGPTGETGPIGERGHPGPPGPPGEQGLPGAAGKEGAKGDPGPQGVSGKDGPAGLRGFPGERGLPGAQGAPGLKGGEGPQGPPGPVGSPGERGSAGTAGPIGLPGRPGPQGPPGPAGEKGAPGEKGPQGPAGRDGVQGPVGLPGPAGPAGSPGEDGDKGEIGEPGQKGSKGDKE
Chain of bovine collagen type XI (Q32S24 28-1736, chain 2 of 3): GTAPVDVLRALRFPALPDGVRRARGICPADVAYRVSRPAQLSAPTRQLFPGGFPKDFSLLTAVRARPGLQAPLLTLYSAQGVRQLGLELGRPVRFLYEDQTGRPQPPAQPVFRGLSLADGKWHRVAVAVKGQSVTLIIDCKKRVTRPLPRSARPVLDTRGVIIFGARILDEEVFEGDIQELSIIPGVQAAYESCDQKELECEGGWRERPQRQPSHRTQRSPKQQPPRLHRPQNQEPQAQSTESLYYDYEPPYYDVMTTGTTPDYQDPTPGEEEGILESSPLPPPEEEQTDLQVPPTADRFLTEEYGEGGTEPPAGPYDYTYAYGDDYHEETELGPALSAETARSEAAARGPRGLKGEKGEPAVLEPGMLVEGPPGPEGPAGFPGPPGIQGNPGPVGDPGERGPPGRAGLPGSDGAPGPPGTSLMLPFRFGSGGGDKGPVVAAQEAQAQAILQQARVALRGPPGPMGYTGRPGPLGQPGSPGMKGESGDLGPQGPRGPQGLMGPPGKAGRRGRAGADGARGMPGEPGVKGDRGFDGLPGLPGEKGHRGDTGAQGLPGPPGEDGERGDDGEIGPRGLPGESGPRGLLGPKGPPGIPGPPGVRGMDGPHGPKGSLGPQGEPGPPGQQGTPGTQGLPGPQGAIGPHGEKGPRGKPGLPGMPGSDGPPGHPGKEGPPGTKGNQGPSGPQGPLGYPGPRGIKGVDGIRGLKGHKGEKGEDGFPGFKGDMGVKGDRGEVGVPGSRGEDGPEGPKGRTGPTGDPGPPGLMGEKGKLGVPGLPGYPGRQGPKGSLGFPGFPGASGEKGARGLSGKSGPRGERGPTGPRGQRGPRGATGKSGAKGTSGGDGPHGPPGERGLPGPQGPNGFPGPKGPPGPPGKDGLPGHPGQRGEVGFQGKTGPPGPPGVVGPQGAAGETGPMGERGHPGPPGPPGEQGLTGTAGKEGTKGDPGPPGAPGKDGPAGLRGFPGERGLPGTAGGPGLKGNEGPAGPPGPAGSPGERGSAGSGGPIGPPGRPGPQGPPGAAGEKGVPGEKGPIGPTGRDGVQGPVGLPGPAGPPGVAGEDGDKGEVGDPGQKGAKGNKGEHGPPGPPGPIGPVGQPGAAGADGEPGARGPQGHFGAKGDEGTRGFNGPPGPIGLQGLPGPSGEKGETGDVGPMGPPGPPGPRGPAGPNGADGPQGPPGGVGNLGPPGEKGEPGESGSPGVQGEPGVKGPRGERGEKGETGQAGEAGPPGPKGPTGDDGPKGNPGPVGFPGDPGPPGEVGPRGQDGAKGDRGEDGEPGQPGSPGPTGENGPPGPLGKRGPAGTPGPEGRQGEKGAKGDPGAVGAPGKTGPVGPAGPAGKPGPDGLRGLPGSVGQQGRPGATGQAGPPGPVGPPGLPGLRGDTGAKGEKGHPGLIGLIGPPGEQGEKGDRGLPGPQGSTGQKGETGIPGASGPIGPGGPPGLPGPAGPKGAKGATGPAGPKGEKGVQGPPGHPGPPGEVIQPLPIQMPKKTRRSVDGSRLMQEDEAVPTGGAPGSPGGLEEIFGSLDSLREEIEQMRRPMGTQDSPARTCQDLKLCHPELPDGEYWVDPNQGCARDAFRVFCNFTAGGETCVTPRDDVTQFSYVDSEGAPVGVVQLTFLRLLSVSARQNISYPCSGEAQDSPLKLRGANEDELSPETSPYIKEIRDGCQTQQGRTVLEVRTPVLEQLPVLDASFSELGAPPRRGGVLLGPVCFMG
Chain of bovine collagen type XI (P02459 182-1487, chain 3 of 3): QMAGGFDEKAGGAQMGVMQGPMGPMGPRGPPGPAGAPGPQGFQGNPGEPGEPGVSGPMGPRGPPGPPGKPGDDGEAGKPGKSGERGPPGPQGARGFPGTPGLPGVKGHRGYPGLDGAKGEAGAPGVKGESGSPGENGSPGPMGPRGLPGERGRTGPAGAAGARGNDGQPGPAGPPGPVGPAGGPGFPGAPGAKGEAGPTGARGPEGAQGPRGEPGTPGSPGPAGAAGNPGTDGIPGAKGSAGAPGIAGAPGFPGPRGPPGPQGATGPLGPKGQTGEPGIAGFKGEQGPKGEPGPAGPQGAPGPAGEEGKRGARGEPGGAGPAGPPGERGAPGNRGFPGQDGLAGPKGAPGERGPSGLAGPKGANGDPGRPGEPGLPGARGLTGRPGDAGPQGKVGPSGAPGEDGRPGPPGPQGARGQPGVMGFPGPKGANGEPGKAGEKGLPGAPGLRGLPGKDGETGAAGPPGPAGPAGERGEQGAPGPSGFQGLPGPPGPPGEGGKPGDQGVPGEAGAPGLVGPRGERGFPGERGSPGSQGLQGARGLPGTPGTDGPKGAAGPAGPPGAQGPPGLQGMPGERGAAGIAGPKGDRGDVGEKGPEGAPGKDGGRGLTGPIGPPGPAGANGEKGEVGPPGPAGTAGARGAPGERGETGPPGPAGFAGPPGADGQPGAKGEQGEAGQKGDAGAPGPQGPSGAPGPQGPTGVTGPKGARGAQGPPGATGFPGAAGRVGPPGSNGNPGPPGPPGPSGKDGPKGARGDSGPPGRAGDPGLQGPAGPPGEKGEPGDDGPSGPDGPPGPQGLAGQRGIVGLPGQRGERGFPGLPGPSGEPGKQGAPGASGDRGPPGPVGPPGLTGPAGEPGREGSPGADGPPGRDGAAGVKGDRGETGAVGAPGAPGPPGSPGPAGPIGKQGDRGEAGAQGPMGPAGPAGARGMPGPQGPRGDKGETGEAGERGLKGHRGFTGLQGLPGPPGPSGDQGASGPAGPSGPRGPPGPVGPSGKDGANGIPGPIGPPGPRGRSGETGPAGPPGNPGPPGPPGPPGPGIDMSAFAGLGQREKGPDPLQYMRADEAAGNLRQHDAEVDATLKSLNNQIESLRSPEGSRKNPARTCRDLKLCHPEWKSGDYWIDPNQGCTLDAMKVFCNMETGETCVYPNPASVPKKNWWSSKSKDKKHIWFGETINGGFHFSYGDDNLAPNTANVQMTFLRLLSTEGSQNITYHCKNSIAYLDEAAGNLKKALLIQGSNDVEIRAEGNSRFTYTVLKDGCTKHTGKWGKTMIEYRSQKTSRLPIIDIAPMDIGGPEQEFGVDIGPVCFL

B1: Recombinant human DDR2-Fc chimera protein (Fc fusion, UniProt Q16832 22-399, looked up)
chain: KAQVNPAICRYPLGMSGGQIPDEDITASSQWSESTAAKYGRLDSEEGDGAWCPEIPVEPDDLKEFLQIDLHTLHFITLVGTQGRHAGGHGIEFAPMYKINYSRDGTRWISWRNRHGKQVLDGNSNPYDIFLKDLEPPIVARFVRFIPVTDHSMNVCMRVELYGCVWLDGLVSYNAPAGQQFVLPGGSIIYLNDSVYDGAVGYSMTEGLGQLTDGVSGLDDFTQTHEYHVWPGYDYVGWRNESATNGYIEIMFEFDRIRNFTTMKVHCNNMFAKGVKIFKEVQCYFRSEASEWEPNAISFPLVLDDVNPSARFVTVPLHHRMASAIKCQYHFADTWMMFSEITFQSDAAMYNNSEALPTSPMAPTTYDPMLKVDDSNTR
notes: discoidin domain receptor 2, human; No catalogue number printed; Probably the extracellular domain of DDR2 joined to a human IgG Fc; Detected by goat anti-human IgG (Fc specific)-HRP; source: bought: Sino Biological
As usually defined, the Kd is the constant that tells how readily two partners part at equilibrium. A high value points to weaker binding. With B1, the Kd lay within 2 to 5 nM.
